Measurements: article PMC3543496 (FEBS letters, 2012)
Substitutions are numbered along the chain they refer to. Names may count otherwise. Like-named read-outs stand apart in the source and are kept apart here.

B1: WT clathrin hub (bovine clathrin heavy chain aa1074-1675) (domain or fragment, UniProt P49951 1074-1675, looked up)
chain: KFDVNTSAVQVLIEHIGNLDRAYEFAERCNEPAVWSQLAKAQLQKGMVKEAIDSYIKADDPSSYMEVVQAANTSGNWEELVKYLQMARKKARESYVETELIFALAKTNRLAELEEFINGPNNAHIQQVGDRCYDEKMYDAAKLLYNNVSNFGRLASTLVHLGEYQAAVDGARKANSTRTWKEVCFACVDGKEFRLAQMCGLHIVVHADELEELINYYQDRGYFEELITMLEAALGLERAHMGMFTELAILYSKFKPQKMREHLELFWSRVNIPKVLRAAEQAHLWAELVFLYDKYEEYDNAIITMMNHPTDAWKEGQFKDIITKVANVELYYRAIQFYLEFKPLLLNDLLMVLSPRLDHTRAVNYFSKVKQLPLVKPYLRSVQNHNNKSVNESLNNLFITEEDYQALRTSIDAYDNFDNISLAQRLEKHELIEFRRIAAYLFKGNNRWKQSVELCKKDSLYKDAMQYASESKDTELAEELLQWFLQEEKRECFGACLFTCYDLLRPDVVLETAWRHNIMDFAMPYFIQVMKEYLTKVDKLDASESLRKEEEQATETQPIVYGQPQLMLTAGPSVAVPPQAPFGYGYTAPAYGQPQPGFGYSM
B2: C1573A clathrin hub (bovine clathrin heavy chain aa1074-1675, C1573A) (domain or fragment, UniProt P49951 1074-1675, looked up)
chain: B1 chain with C500A

Key:
SEC-MALS [1] = biological target: the molecule itself; assay: SEC-MALS
SEC-MALS [2] = biological target: the molecule itself; assay: SEC-MALS; remark: listed apart in the source

Protein | stoichiometry N (SEC-MALS [1]) | stoichiometry N (SEC-MALS [2])
B1 | 3 | 
B2 | ~2 | ~3
